The assay deals with PAC-1. Kind of assay: flow cytometry on cells. Conditions: read off a plot.
[1] abbreviates: FITC-PAC-1 5 µg/ml, DTT + PT25-2, parent: est. 36.
[2] abbreviates: FITC-PAC-1 5 µg/ml, DTT, parent: est. 13.
[3] abbreviates: FITC-PAC-1 5 µg/ml, mAb PT25-2, parent: est. 26.
Where [4] appears, read: no treatment (CON), parent: est. 0.

On to “normal integrin αIIbβ3 (from UniProt P08514;P05106) αIIb:K321C; β3:E358C”, for which the response came out at 38 NNFI under setting [1]; 19 NNFI under setting [2]; 6.2 NNFI under setting [3]; 0.7 NNFI (FITC-PAC-1 5 µg/ml, no treatment (CON), parent: est. 0).

Take “normal integrin αIIbβ3 (from UniProt P08514;P05106) αIIb:F992A; αIIb:F993A”: the response came out at 37 NNFI (DTT + PT25-2, parent: est. 36); 28 NNFI (DTT, parent: est. 12); 34 NNFI (mAb PT25-2, parent: est. 26); 24 NNFI under setting [4].

On to “normal integrin αIIbβ3 (from UniProt P08514;P05106) αIIb:K321C; β3:R360C”, for which the response runs as follows: under setting [1], 28 NNFI; under setting [2], 14 NNFI; under setting [3], 9.7 NNFI.

For the substance “normal integrin αIIbβ3 (from UniProt P08514;P05106) αIIb:K321C; αIIb:F992A; αIIb:F993A; β3:R360C”, the response runs as follows: (DTT + PT25-2, parent: est. 36) 20 NNFI; (DTT, parent: est. 12) 13 NNFI; (mAb PT25-2, parent: est. 26) 9.9 NNFI; under setting [4], 5.5 NNFI.

Regarding “normal integrin αIIbβ3 (from UniProt P08514;P05106) αIIb:K321C; αIIb:F992A; αIIb:F993A; β3:E358C”, the response reads like this: (DTT + PT25-2, parent: est. 36) 38 NNFI; (DTT, parent: est. 12) 23 NNFI; (mAb PT25-2, parent: est. 26) 5.5 NNFI; under setting [4], 2.7 NNFI.

Values taken from PMC3857192.
